Experimental findings from patent US20030104981A1, “Human insulin analogues” (priority 1995, published 2003) are described below.

The target of test [1] is insulin-degrading enzyme (IDE). The experiment in a line: cell-based or functional assay.
In test [2] the target is insulin receptor in the LB lymphoma cell. Briefly: competition with native insulin for insulin receptors on LB lymphoma cells.
insulin receptor in the LB lymphoma cell, sequence (P15208 28-748, chain 1 of 2): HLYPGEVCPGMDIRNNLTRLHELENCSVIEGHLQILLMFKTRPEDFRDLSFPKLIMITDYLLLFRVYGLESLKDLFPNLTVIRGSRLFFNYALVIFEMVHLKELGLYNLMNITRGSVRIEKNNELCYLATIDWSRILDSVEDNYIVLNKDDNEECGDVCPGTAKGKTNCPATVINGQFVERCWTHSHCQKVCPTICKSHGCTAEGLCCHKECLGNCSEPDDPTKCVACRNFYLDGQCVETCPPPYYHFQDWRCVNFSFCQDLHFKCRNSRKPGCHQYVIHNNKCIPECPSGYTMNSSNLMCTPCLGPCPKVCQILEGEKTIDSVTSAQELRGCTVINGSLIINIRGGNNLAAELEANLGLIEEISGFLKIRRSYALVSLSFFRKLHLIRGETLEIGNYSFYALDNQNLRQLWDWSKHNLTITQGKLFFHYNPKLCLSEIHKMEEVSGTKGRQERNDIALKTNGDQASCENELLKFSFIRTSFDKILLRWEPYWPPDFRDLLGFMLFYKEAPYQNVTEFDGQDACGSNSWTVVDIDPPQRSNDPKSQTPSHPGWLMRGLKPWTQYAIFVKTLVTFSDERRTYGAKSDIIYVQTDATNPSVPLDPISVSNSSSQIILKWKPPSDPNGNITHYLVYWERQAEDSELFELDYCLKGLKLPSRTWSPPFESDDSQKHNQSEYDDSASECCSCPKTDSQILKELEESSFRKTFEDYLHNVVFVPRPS
insulin receptor in the LB lymphoma cell, sequence (P15208 753-1372, chain 2 of 2): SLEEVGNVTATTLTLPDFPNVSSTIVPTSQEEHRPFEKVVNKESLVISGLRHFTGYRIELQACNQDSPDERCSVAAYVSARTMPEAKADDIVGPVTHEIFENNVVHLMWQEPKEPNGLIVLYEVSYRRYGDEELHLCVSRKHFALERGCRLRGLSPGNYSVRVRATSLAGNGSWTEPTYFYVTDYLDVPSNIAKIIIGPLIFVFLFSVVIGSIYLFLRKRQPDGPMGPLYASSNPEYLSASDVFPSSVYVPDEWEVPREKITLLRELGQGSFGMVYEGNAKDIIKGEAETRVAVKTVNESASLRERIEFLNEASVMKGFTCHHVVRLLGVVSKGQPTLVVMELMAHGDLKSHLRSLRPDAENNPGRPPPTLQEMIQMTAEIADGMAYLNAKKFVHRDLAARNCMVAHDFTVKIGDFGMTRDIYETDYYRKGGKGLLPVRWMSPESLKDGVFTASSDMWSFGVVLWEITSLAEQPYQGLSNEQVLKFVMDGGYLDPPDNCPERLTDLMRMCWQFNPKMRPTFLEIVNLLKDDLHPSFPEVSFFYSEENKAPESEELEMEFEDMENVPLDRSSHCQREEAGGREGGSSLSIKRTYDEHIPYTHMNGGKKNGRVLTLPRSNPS

In test [1], “^125I A14 mono-iodo porcine insulin (from UniProt P01315 25-54) (ligand)” came in with a TCA assay analysis of degradation, 10 minutes incubation of 25.9%; a TCA assay analysis of degradation, 20 minutes incubation of 66.8%; a TCA solubility after 15 minutes of incubation, IDE dilution 1:30 of 22.5%.

In test [2], “des-(B26-B30)-[Glu-B10; Ser-B17; Tyr-B25-NH2] Radoyka I human insulin analogue (ligand)” came in with a binding affinity as percent of native insulin of 20% and a times less binding affinity than native insulin of 5 times.

In turn, “des-(B26-B30)-[Glu-B10; Thr-B14; Ser-B17; Tyr-B25-NH2] Radoyka II human insulin analogue (ligand)” returned a stability from insulin-degrading enzyme against ^125I A14 porcine insulin (TCA precipitation or HPLC assay) in test [1] of 4.5 times. In addition, in test [2], the binding affinity as percent of native insulin turned out to be 10% and the times less binding affinity than native insulin is 10 times.
